Test results published in publication PMC11476691, “ATM1, an essential conserved transporter in Apicomplexa, bridges mitochondrial and cytosolic [Fe-S] biogenesis” (PLOS Pathogens, 2024).

Assays:
PfIscU = molecular target: T1, PfIscU (Plasmodium falciparum, UniProt Q8IKT4); experiment: chemical reconstitution, cluster donor assay, UV-VIS; assay type: binding; details: anaerobic, 25 mM Tris-Cl pH 7.5, 100 mM NaCl
T1 construct: gene IscU; GST fusion from pGEX-KG in E. coli BL21(DE3), GST removed by thrombin
T1 sequence (Q8IKT4 1-162): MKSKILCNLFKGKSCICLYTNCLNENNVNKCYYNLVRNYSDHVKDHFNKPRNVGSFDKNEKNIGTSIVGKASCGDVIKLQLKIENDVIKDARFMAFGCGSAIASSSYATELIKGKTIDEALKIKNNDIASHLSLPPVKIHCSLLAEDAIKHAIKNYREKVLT

PfATM1-CTD = molecular target: T2, PfATM1-CTD (Plasmodium falciparum, UniProt Q8IDH9); experiment: UV-VIS spectroscopy; assay type: binding; details: as purified; lower intensity than full length
T2 construct: gene ABCB6
T2 sequence (Q8IDH9 807-1049): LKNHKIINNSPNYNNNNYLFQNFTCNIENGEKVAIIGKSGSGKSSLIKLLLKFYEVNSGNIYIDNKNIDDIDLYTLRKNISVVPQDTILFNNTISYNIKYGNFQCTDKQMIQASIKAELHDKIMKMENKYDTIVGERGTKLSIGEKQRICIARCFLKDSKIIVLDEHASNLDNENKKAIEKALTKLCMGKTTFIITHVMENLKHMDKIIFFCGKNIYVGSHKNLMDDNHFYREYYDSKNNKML

PfIscA2 = molecular target: T3, PfIscA2 (Plasmodium falciparum, UniProt O97297); experiment: chemical reconstitution, cluster donor assay, UV-VIS; assay type: binding; details: anaerobic, 25 mM Tris-Cl pH 7.5, 100 mM NaCl
T3 construct: gene IscA2; GST fusion from pGEX-KG in E. coli C43, GST removed by thrombin
T3 sequence (O97297 1-404): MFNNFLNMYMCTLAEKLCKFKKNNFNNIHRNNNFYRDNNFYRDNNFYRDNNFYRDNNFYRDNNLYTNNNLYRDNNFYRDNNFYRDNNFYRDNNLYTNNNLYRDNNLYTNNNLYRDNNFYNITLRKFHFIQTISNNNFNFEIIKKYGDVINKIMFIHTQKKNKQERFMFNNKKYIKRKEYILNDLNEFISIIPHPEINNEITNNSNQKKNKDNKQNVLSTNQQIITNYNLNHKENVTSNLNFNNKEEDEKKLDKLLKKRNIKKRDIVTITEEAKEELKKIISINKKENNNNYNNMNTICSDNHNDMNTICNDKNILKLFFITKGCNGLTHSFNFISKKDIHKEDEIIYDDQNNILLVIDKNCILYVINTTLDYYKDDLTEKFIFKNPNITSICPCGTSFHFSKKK

[1] = substrate: Nc1ncnc2c1ncn2[C@@H]1O[C@H](COP(=O)(O)OP(=O)(O)OP(=O)(O)O)[C@@H](O)[C@H]1O; experiment: ATPase, phosphate release (EnzChek MESG/PNP); assay type: biochemical, Plasmodium falciparum; details: 500 nM holo-PfATM1, increasing ATP, no GSSG
[2] = molecular target: the molecule itself; experiment: SEC + native gel or EMSA; Superdex S-200; fractions electrophoresed on 6% native-PAGE; dimer to monomers
[3] = molecular target: the molecule itself; experiment: SDS-PAGE of the purified protein; purified PfATM1-CTD on Coomassie-stained SDS-PAGE and western blot with anti-6XHis Ab; dimer of about 60 kDa beside the monomer of about 30 kDa; broken with DTT and urea

Molecule: [S]12[Fe]3[S]4[Fe]1[S]1[Fe]2[S]3[Fe]41 [[4Fe-4S]]
- chemical reconstitution, cluster donor assay, UV-VIS (PfIscU): Reconstituted PfIscU and PfIscA2 carrying [4Fe-4S] were then used as cluster donors
- UV-VIS spectroscopy (PfATM1-CTD): A lower intensity [4Fe-4S] peak was also observed in PfATM1-CTD
- chemical reconstitution, cluster donor assay, UV-VIS (PfIscA2): Reconstituted PfIscU and PfIscA2 carrying [4Fe-4S] were then used as cluster donors

B1: PfATM1 (PfABCB6 / PfMDR6) (Plasmodium falciparum 3D7) (protein)
chain: RISDEFYSSFLYHSYIENLKSTKEYVYFIYLQDIYYNINIFKNKGRLYISNNGLCNDKLKDNNNNNNINSNNFGNSYNAYTKKKSFYHSFNDLNEAKEIRKKRKNEKSEKNIVEYLLCNIINPNENYHIQNIYNHNLNNNVSIEIHKKNDSVMYHYNNEKKTKTSKMTTDIKLKQINNVYIKYVPYKNKIITLACPNKYYPTLYRYFSSHTNKKEDAEENDKNKNININNVDNRYKEDFMYGCENKNDSEKHKKTTNNNFGDEFEKLKVKELDKILNKLEMLYDNKNNKMNINVKILGYIFKNFLLKNKELKRKIFCSLFFLLCSKMAIIYTPILLSTFIENVNLQKSLSNNIDIYSTNKSSVLLLCAYVFSRVLSSTMNELRNSVFSNISQKISTFVSKLFFYKIHNLNLTYILSKKNGELSFIFNRGCKSITNLLNVMVFQIIPIIIEFILYLYILTYKIHYTVSLVTCFNMFLYVLFTTLITKRRTIIRKHMNKAEQNTFNIFLDSIQNVEQVKYYTNEIHELKKFIKEQKKYEKEAINVQKSLSFLNFGQQIILNTNLFLCMYLTYLNIANDIFPFSYLILVNTLLFQLAMPLNMFGTIYRETKLSLVDIESMIKILVKKIKSPDYGNQMLIKNGNIKFENVYFKYPLNEDINGLEQNYQAKEKDPNIINNINNINNINNINNINNINSINNIYTFESNVKNISSTNMITSSINKLKKWYLDKVKDNKKNVQYNNNDVKKTNPNITKNLNKEIKENINTHLKNHKIINNSPNYNNNNYLFQNFTCNIENGEKVAIIGKSGSGKSSLIKLLLKFYEVNSGNIYIDNKNIDDIDLYTLRKNISVVPQDTILFNNTISYNIKYGNFQCTDKQMIQASIKAELHDKIMKMENKYDTIVGERGTKLSIGEKQRICIARCFLKDSKIIVLDEHASNLDNENKKAIEKALTKLCMGKTTFIITHVMENLKHMDKIIFFCGKNIYVGSHKNLMDDNHFYREYYDSKNNKML
notes: predicted mature form aa 43-1049 (MTS removed), E. coli YbeL hydrophilic domain (beta) and 6xHis fused at both N- and C-termini (pET28a beta-PfATM1-beta), E. coli C43, 152 kDa monomer, homodimer
- Km [1]: 178.9 ± 34.86 µM
- kcat [1]: 0.129 ± 0.00767 s⁻¹

B2: recombinant PfATM1 (6X-His tagged β-PfATM1-β) (natural protein, P. falciparum, UniProt Q8IDH9 43-1049, looked up)
chain: RISDEFYSSFLYHSYIENLKSTKEYVYFIYLQDIYYNINIFKNKGRLYISNNGLCNDKLKDNNNNNNINSNNFGNSYNAYTKKKSFYHSFNDLNEAKEIRKKRKNEKSEKNIVEYLLCNIINPNENYHIQNIYNHNLNNNVSIEIHKKNDSVMYHYNNEKKTKTSKMTTDIKLKQINNVYIKYVPYKNKIITLACPNKYYPTLYRYFSSHTNKKEDAEENDKNKNININNVDNRYKEDFMYGCENKNDSEKHKKTTNNNFGDEFEKLKVKELDKILNKLEMLYDNKNNKMNINVKILGYIFKNFLLKNKELKRKIFCSLFFLLCSKMAIIYTPILLSTFIENVNLQKSLSNNIDIYSTNKSSVLLLCAYVFSRVLSSTMNELRNSVFSNISQKISTFVSKLFFYKIHNLNLTYILSKKNGELSFIFNRGCKSITNLLNVMVFQIIPIIIEFILYLYILTYKIHYTVSLVTCFNMFLYVLFTTLITKRRTIIRKHMNKAEQNTFNIFLDSIQNVEQVKYYTNEIHELKKFIKEQKKYEKEAINVQKSLSFLNFGQQIILNTNLFLCMYLTYLNIANDIFPFSYLILVNTLLFQLAMPLNMFGTIYRETKLSLVDIESMIKILVKKIKSPDYGNQMLIKNGNIKFENVYFKYPLNEDINGLEQNYQAKEKDPNIINNINNINNINNINNINNINSINNIYTFESNVKNISSTNMITSSINKLKKWYLDKVKDNKKNVQYNNNDVKKTNPNITKNLNKEIKENINTHLKNHKIINNSPNYNNNNYLFQNFTCNIENGEKVAIIGKSGSGKSSLIKLLLKFYEVNSGNIYIDNKNIDDIDLYTLRKNISVVPQDTILFNNTISYNIKYGNFQCTDKQMIQASIKAELHDKIMKMENKYDTIVGERGTKLSIGEKQRICIARCFLKDSKIIVLDEHASNLDNENKKAIEKALTKLCMGKTTFIITHVMENLKHMDKIIFFCGKNIYVGSHKNLMDDNHFYREYYDSKNNKML
notes: P. falciparum ATM1 (PfATM1, ABCB6, MDR6), PF3D7_1352100, predicted mature form, aa 43-1049; Monomer 152 kDa, dimer about 300 kDa with the fusion domains; also called full-length PfATM1; PfATM1 dimer; source: E. coli C43, purified from membranes (DDM and Triton X-114, Ni-NTA, SEC Superdex S-200); not shown: E. coli YbeL hydrophilic fusion domain (β), N-terminal, kept; E. coli YbeL hydrophilic …
- stoichiometry N [2]: 2

B3: PfATM1-CTD (domain or fragment, P. falciparum, UniProt Q8IDH9 807-1049, looked up)
chain: LKNHKIINNSPNYNNNNYLFQNFTCNIENGEKVAIIGKSGSGKSSLIKLLLKFYEVNSGNIYIDNKNIDDIDLYTLRKNISVVPQDTILFNNTISYNIKYGNFQCTDKQMIQASIKAELHDKIMKMENKYDTIVGERGTKLSIGEKQRICIARCFLKDSKIIVLDEHASNLDNENKKAIEKALTKLCMGKTTFIITHVMENLKHMDKIIFFCGKNIYVGSHKNLMDDNHFYREYYDSKNNKML
notes: P. falciparum ATM1 (PfATM1, ABCB6, MDR6), PF3D7_1352100, C-terminal ATPase domain, aa 807-1049; Cloned in pET23a; About 30 kDa, with a dimeric form of about 60 kDa on SDS-PAGE; also called C-terminal ATPase domain of PfATM1; source: E. coli BL21 (DE3), purified (Ni-NTA, SEC Superdex S-75)
- stoichiometry N [3]: 2
